Measurements reported in article PMC11697773.

Assays:
[1] = biological target: human neonatal Fc receptor (FcRn) (human) (UniProt P55899); assay: BLI; Octet; biotinylated human FcRn on streptavidin-coated biosensors, antibody soluble; equilibrium binding; PBSA pH 5.6; tips regenerated in PBSA pH 7.4
[2] = biological target: human Fcγ receptor I (FcγRI) (human) (UniProt P12314); assay: BLI; Octet; biotinylated human FcγRI on streptavidin-coated biosensors, antibody soluble; equilibrium binding; PBSA pH 7.4; tips regenerated in 0.1 M glycine pH 3.5
Chain of human Fcγ receptor I (FcγRI) (human) (P12314 16-292): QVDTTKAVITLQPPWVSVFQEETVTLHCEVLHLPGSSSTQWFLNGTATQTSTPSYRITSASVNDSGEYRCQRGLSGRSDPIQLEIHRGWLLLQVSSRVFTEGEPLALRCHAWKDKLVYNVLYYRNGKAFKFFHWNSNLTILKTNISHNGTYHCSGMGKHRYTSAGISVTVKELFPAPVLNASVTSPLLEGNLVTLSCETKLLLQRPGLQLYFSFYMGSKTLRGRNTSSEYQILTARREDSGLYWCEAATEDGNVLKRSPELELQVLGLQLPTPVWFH

Substance | Kd [1] [µM] | Kd [2] [µM]
F5111 antibody, N297A | 0.133 | 0.105
trastuzumab N297G + YTE + SEFL (aglycosylated variant) (antibody) | 0.0204 | 
